Neutralization of WT JCV: EC50 [pM] data for four molecules are collected here from patent publication US20220356228A1.

Substitutions are numbered along the chain they refer to.

B1: 6G5 (antibody, V domains shown)
VH: QVQLVQSGAEVKKPGASVKVSCKASGYTFTNYDIHWVRQAAGQGLEWMGWTNPNSGNSDYAQKFQGRVSMTRDTSMRTMYMELNSLRSEDTAVYFCARKIWVGTTIFDYWGQGTLVTVSS
VL: DIQMTQSPSSLSASVGDRVTIACRASQSIYRFLSWYQQKPGTAPKLLIFAVSSLQSGVPSRFSGSGSGTDFTLTISSLHPEDFAIYYCQQSDSPPLTFGGGTKVGIK
B2: 6H7 (antibody, V domains shown)
VH: QVQLVESGGGLVKPGGSLRLSCAGSGFTFSDHYMSWIRQAPGKGLEWVSYISTSGRTIFYVDSVKGRFTISRDNAKNSLYLQMNSLRAEDMAVYYCASDYYDNVGWNYWGQGALVIVSS
VL: DVVLTQSPLSLPVTLGQPASISCRSSQSLVYSDGNTYLNWFQQRPGQSPRRLIYKVSDRDFGVPDRFSGSGSGTDFTLKISRVEAEDVGIYYCMQGTHWPRTFGQGTKVEIK
B3: 5G5 (antibody, V domains shown)
VH: LVQLVESGGGLVKPGGSLRLSCTASGITFSDLYMSWIRQSPGKGLEWISYISTSGRTIYYTDSVKGRFTISRDNAKNSLFLQMNRLRADDTAVYYCAGDYYDNSGWDYWGRGTLVTVSS
VL: B2 VL with D1N, L4M, T14A, S26G, F61S
B4: 8C3 (antibody, V domains shown)
VH: B2 VH with G24A, F59H, V61A, N107D, A113T, I116T
VL: B2 VL with L4M, V30L, F61S, E86D, I90V, T97A

Chain of JCV major capsid protein VP1, wild type (John Cunningham virus (JCV)) (P03089 whole entry): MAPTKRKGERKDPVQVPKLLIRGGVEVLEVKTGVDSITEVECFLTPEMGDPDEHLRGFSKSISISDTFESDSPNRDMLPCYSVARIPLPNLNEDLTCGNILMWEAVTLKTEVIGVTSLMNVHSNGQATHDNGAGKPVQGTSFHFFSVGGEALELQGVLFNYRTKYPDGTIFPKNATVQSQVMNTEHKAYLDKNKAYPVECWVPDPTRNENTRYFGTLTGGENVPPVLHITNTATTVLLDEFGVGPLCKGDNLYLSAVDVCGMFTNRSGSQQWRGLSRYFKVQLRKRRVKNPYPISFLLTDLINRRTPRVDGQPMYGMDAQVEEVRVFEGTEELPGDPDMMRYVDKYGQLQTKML

The test has as its target JCV major capsid protein VP1, wild type (John Cunningham virus (JCV)) (UniProt P03089). Nature of the test: cell-based or functional assay.
In the case of B1, the Neutralization of WT JCV: EC50 [pM] came out at 3.1 pM. In the case of B2 it was 0.5 pM. The same measure for B3: 0.4 pM; for B4: 14 pM.
